# Results reported in patent publication US20120021995A1 (published 2012).
# Residue numbers refer to the chain shown, from its start.
# T1: DR4 (TRAIL-R1) on cancer cells (human, UniProt O00220 24-468)
# T1 sequence: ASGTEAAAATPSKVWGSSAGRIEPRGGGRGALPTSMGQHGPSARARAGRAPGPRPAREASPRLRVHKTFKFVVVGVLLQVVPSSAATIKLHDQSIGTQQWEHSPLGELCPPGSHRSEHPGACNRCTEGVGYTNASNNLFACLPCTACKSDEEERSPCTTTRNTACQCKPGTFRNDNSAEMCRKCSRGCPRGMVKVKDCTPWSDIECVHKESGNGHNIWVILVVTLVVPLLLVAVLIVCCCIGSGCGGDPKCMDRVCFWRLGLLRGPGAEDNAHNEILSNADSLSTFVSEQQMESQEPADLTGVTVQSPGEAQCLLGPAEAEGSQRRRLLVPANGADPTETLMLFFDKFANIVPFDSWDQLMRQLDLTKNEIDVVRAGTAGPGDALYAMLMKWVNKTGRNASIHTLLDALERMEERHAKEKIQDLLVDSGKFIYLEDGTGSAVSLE
# T2: recombinant human TRAIL R1 (DR4)/Fc chimera (human, UniProt O00220 24-239)
# T2 construct: bought (R&D Systems); not shown: Fc of the bought chimera (R&D Systems)
# T2 sequence: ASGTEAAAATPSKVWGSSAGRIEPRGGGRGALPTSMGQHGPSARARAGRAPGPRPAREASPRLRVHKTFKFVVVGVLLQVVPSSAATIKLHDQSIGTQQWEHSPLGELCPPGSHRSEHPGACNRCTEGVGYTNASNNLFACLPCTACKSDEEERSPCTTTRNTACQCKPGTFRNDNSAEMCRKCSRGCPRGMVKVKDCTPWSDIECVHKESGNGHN
# B1: 029-15.A8G (designed binder)
# chain: EPPTQKPKKIVNAKKDVVNTKMFEELKSRLDTLAQEVALLKEQQALQTVCLKGTKVHMKCFLAFTQTKTFHEASEDCISRGGTLSTPQTGSENDALYEYLRQSVGNEAEIWLGLNRAWLRPRWVDMTGARIAYKNWETEITAQPDGGTLVSGENCAVLSGAANGKWFDKRCRDQLPYICQFGIV
# notes: ATRIMER; also called 1a7b
# B2: 029-15.A1H (designed binder)
# chain: B1 chain with W118V, T148W, L149V, V150L, S151G, E153K
# notes: ATRIMER; also called 8b6b
# B3: 029-15.A3C (designed binder)
# chain: EPPTQKPKKIVNAKKDVVNTKMFEELKSRLDTLAQEVALLKEQQALQTVCLKGTKVHMKCFLAFTQTKTFHEASEDCISRGGTLSTPQTGSENDALYEYLRQSVGNEAEIWLGLNRATLRPRWVDMTGARIAYKNWETEITAQPDGGKNCAVLSGAANGKWFDKRCRDQLPYICQFGIV
# notes: ATRIMER; also called 4a8c
# B4: 29p61P1E11 (designed binder)
# chain: EPPTQKPKKIVNAKKDVVNTKMFEELKSRLDTLAQEVALLKEQQALQTVCLKGTKVHMKCFLAFTQTKTFHEASEDCISRGGTLSTPQTGSENDALYEYLRQSVGNEAEIWLGLNGWLEGVGWVDMTGARIAYKNWETEITAQPDGGWPFSNENCAVLSGAANGKWFDKRCRDQLPYICQFGIV
# notes: ATRIMER; also called 029-61.1E11
# B5: 119p94P1G7 (designed binder)
# chain: B4 chain with E137G, T138W, E139S, I140A, T141R, A142V
# notes: ATRIMER from pANA19
# B6: 71p88P1F2 (designed binder)
# chain: B4 chain with V121S, W148F, F150A, S151R, N152W
# B7: 71p88P1A3 (designed binder)
# chain: B4 chain with W117Y, E119A, V121T, W148R, P149V, F150L, S151A, N152W
# B8: 71p88P1B3 (designed binder)
# chain: B4 chain with V121S, W148V, P149Q, F150W, S151R, N152W
# B9: 71p88P1G4 (designed binder)
# chain: B4 chain with W117Y, L118M, E119T, W148R, P149S, F150W, S151K, N152W
# B10: 71p88P1G1 (designed binder)
# chain: B4 chain with L118M, W148P, F150W, S151R, N152W
# Molecular target: T3, recombinant human TRAIL R2 (DR5)/Fc chimera (human, UniProt O14763 54-182)
# T3 construct: bought (R&D Systems); not shown: Fc of the bought chimera (R&D Systems)
# Assay: SPR (Biacore), DR5-Fc captured by anti-Fc, ATRIMER analyte; apparent
# Protocol: (§1) Immobilization of an anti-human IgG Fc antibody (Biacore) to the CM5 chip (Biacore) was performed using standard amine coupling chemistry and this surface was used to capture recombinant human DR4 or DR5 receptor Fc fusion protein (R&D Systems). ATRIMER™ dilutions (1-500 nM) were injected over the DR4 and DR5 receptor surface at 30 μl/min and kinetic constants were derived from the sensorgram data using the Biaevaluation software (version 3.1, Biacore). Data collection was 3 minutes for the association and 5 minutes for dissociation. The anti-human IgG surface was regenerated with a 30 s pulse of 3 M magnesium chloride. All sensorgrams were double-referenced against an activated and blocked flow-cell as well as buffer injections.
Ka,Kd,koff,kon,Molecule
6.43e+07 M⁻¹,15.6 nM,0.000629 s⁻¹,40500 M⁻¹ s⁻¹,B1
2.56e+07 M⁻¹,39.1 nM,0.000506 s⁻¹,12900 M⁻¹ s⁻¹,B2
1.74e+08 M⁻¹,5.74 nM,0.000362 s⁻¹,63000 M⁻¹ s⁻¹,B3

# Molecular target: DR5 (TRAIL-R2) on cancer cells (human, UniProt O14763 56-440)
# Assay: cell-based or functional assay
row,Molecule,"% cell death of H2122 and A2780 cells, 20 µg/mL, 20 h"
1,B1,> 50%
2,B2,> 50%
3,B3,> 50%

# Molecular target: T1, DR4 (TRAIL-R1) on cancer cells
# Assay: cell-based or functional assay
row,Molecule,ED50 (nM) ST486 (cell killing)
1,B4,217 nM
2,B5,25.5 nM

# Molecular target: T2, recombinant human TRAIL R1 (DR4)/Fc …
# Assay: SPR (Biacore), ATRIMER
# Protocol: as §1
# Clones were then sub-cloned into pANA19 for expression and purification as described above. Cell killing activity was measured as described above, and binding affinity was measured by Biacore.
Kd,koff,kon,Molecule
3.2 nM,0.000302 s⁻¹,93800 M⁻¹ s⁻¹,B4
2.41 nM,0.0007 s⁻¹,349000 M⁻¹ s⁻¹,B5

# Molecular target: T1, DR4 (TRAIL-R1) on cancer cells
# Assay: cell-based or functional assay
# Remark: another data set of the same source
Molecule,EC50 Colo205 (cell killing),EC50 ST486 (cell killing)
rhTRAIL-His (from UniProt P50591 95-281) (ligand),0.06 nM,0.06 nM

# Molecular target: T1, DR4 (TRAIL-R1) on cancer cells
# Assay: cell-based or functional assay
# Remark: another data set of the same source
row,Molecule,ED50 ST486 (cell killing)
1,B4,217 nM
2,B6,168 nM
3,B7,170 nM
4,B8,3.2 nM
5,B9,75 nM
6,B10,80 nM

# Molecular target: T1, DR4 (TRAIL-R1) on cancer cells
# Assay: cell-based or functional assay
# Remark: another data set of the same source
Molecule,Colo205 % killing (% of TRAIL activity),H2122 % killing (% of TRAIL activity),ST486 % killing (% of TRAIL activity)
B6,-18%,-5%,58%
B7,-7%,-3%,41%
B8,42%,0%,88%
B9,24%,5%,75%
B10,12%,0%,78%
